Results published in article PMC3172333.
Read-outs that look alike come from different tables or passages of the source.

Columns and labels:
[1] = biological target: cross-linked Aα221-610 oligomers (factor XIIIa cross-linked) (human); test: SPR
[2] = biological target: recombinant Aα221-610 fragment corresponding to the human fibrinogen αC region (non-cross-linked) (human); test: SEC
[3] = biological target: recombinant Aα221-610 fragment corresponding to the human fibrinogen αC region (non-cross-linked) (human); test: SEC; remark: listed apart in the source
[4] = biological target: recombinant Aα221-610 fragment corresponding to the human fibrinogen αC region (non-cross-linked) (human); test: SEC; remark: listed apart in the source
[5] = biological target: recombinant Aα221-610 fragment corresponding to the human fibrinogen αC region (non-cross-linked) (human); test: SEC; remark: listed apart in the source
[6] = biological target: recombinant Aα221-610 fragment corresponding to the human fibrinogen αC region (non-cross-linked) (human); test: SEC; remark: listed apart in the source

Kd [1] [nM] | percent oligomers [2] [%] | percent monomer [3] [%] | percent oligomers [4] [%] | percent monomer [5] [%] | percent oligomers [5] [%] | percent oligomers (after overnight incubation) [5] [%] | percent oligomers (immediately after dilution) [5] [%] | percent oligomers [6] [%] | Substance
458 |  |  |  |  |  |  |  |  | human Glu-plasminogen (natural protein)
 | 22 | 10 | 60 | 60 | 5 | 11 | 18 | 15 | recombinant Aα221-610 fragment corresponding to the human fibrinogen αC region (non-cross-linked) (domain or fragment)
440 |  |  |  |  |  |  |  |  | recombinant single-chain tissue type plasminogen activator (enzyme)
